The labels stand for the following.
B1: IL-7Rα_2 VHH (VHH)
VHH: QVQLVESGGGLVQPGGSLRLSCEVSGIRFSLRNMHWYRQASGRQREWVATITAGGVTGYRDSVKGRFTISRDNAKNTVDLQMNGLQLEDTAVYYCNHGDTAYWGQGTQVTVSS
notes: soluble VHH, detected with anti-His antibody
B2: IL-7Rα_13 VHH (VHH)
VHH: QVQLVESGGGLVRPGGSLRLACAASGIRFSLRNMHWYRQASGRQREWVATITAGGVTGYRDSVKGRFTISRDNAKNTVDLQMNGLQLEDTAVYYCNHGDTAYWGQGTQVTVSS
notes: as for B1
B3: IL-7Rα_7 VHH (VHH)
VHH: QVQLVESGGGLVQPGGSLRLSCAASGFTFSNYAMSWYRQAPGKERELVASISVFGGGTNYADSVKGRFTISRDNAKNTVYLQMNSLKPEDSAVYYCNKRRYDDYWGQGTQVTVSS
notes: as for B1
B4: IL-7Rα_1 VHH (VHH)
VHH: QVQLVESGGGLVQPGGSLRLSCAASGFTFSQRIMSWYRQAPGKERELVASISPFGDGTRYADSVKGRFTISRDNARNQLYLQMNTLKPEDTAVYYCNKRNLEISDDWGQGTQVTVSS
notes: as for B1
B5: IL-7Rα_5 VHH (VHH)
VHH: QVQLVESGGGLVQPGGSLRLSCAASGFTFSQRIMSWYRQAPGKEHELVASISPFGDGTRYADSVKGRFTISRDNARNQLYLQMNSLEFEDTAVYYCNKRNLDVSDDWGQGTQVTVSS
notes: as for B1
B6: IL-7Rα_14 VHH (VHH)
VHH: QVQLVESGGGLVQPGGSLRLSCAASGFTFSQRIMSWYRQAPGKERELVASVSPFGDGTRYADSVKGRFTISRDNAKSQLYLQMNNLKFEDTAVYYCNKRNLEISDAWGQGTQVTVSS
notes: as for B1
B7: IL-7Rα_4 VHH (VHH)
VHH: QVQLVESGGGLVQPGGSLRLSCTTSGFTFTTYAMKWVRQAPGKGLEWVAFISPAGGITDYADSVKGRFTISRDNAKETLYLRMDSLKPEDTAVYYCARGDSDTNNNRGQGTQVTVSS
notes: as for B1
B8: IL-7Rα_8 VHH (VHH)
VHH: QVQLVESGGGLVQPGGSLRLSCAASGFTISSWSMKWVRQAPGKGPEWVSYISPGGGSLDYLDSVKGRFTISRDNAKNTVYLQMSNLKSEDTALYWCATGTGPTRGQGTQVTVSS
notes: as for B1
B9: IL-7Rα_11 VHH (VHH)
VHH: QVQLVESGGGLVQPGGSLRLSCEASGFTISSWSMKWVRQAPGKGPEWVSYISPGGGSLDYHHSVKGRFTISRDNARNTVYLQMSNLQSEDTALYWCATGTGETRGQGTQVTVSS
notes: as for B1
B10: IL-7Rα_12 VHH (VHH)
VHH: QVQLVESGGGLVQPGGSLRLSCAASGFTISSRSMKWVRQAPGKGPEWVSYISPGGGTVDYQDSVKGRFTISRDNAKNTVYLQMSNLKSEDTALYWCATGTGPTRGRGTQVTVSS
notes: as for B1
B11: IL-7Rα_9 VHH (VHH)
VHH: QVQLVESGGGLVQPGGSLRLSCAASGFTISTWSMKWVRQAPGKGPEWVSYISPGGTSLDYQDSVKGRFTISRDNAKNTVYLQMNNLKSEDTALYWCATGTGETRGQGTQVTVSS
notes: as for B1
B12: IL-7Rα_15 VHH (VHH)
VHH: QVQLVESGGGLVQPGGSLRLSCAASGFTISSWSMKWVRQAPGKGPEWVSYISPGGGSLDYHHSVKGRFTISRDNARNTVYLQMSNLQSEDTALYWCATGTGETRGQGTQVTVSS
notes: as for B1

Here are results for twelve molecules from patent publication US20260176377A1 (Hoffmann-La Roche, published 2026).

The target in the experiment is T1, extracellular domain (ECD) of human IL-7Rα fused to biotinylated Fc knob-into-hole (P1AI1009) (human, UniProt P0DOX5 223-448 = IgG part, biotinylated at C-terminal AviTag).
T1 construct: also called human IL-7Rα-Fc; human IL-7Rα antigen
The experiment is described as follows: ELISA, soluble VHH supernatants on neutravidin plates with biotinylated IL-7Rα-Fc versus biotinylated Fc, anti-His-HRP. As for the experimental part: Round 3 and round 4 enrichment libraries were screened for target specificity vs Fc specificity by ELISA. Individual VHH clones were expressed in 1 ml E. coli cultures in a 96-well plate and supernatants containing soluble VHH were screened for specificity by ELISA. Supernatants were transferred to neutravidin 96-well plates coated with biotinylated Fc (P1AE6073) or target Fc-tagged biotinylated antigen (P1AI1009). Following incubation for 1 hour at 20° C., plates were washed 3 times with PBST and 3 times with PBS. HRP-conjugated anti-His antibody (Sigma, Cat. No: A7058) was added to wells at 1:2000 dilution and plates were incubated for 1 hour at 20° C. Plates were washed 3 times with PBST followed by 3 washes with PBS. Plates were developed by adding 1-Step Ultra TMB-ELISA substrate (Thermo Fisher Scientific, Cat. No: 34028) and reactions were quenched with sulfuric acid. Absorbance at 450 nm was measured using a Tecan infinite M1000 Pro and reference absorbance values were measured at 650 nm. Reference-subtracted absorbance values at 450 nm were represented as stacked bar charts for round 3 library 1 and library 2 (FIG. 40A and B, respectively) and round 4 library 1 and library 2 (FIG. 40C and D, respectively). […] 16 target-specific VHH were selected and subsequently cloned into bispecific heavy chain antibody formats.
(In general: ELISA stands for enzyme-linked immunosorbent assay.)
Take B1: the binding result is listed as “binds”.
Under B2 stands “binds”.
As for B3, the entry is “binds”; as for B4, “binds”; as for B5, “binds”.
Under B6 stands “binds”; under B7, “binds”.
Regarding B8, the binding result was “binds”.
Under B9 stands “binds”; under B10, “binds”.
Under B11 stands “binds”.
As for B12, the entry is “binds”.
